Test results taken from patent publication US10919943B2, “Mutant proteins enabling agrochemical control of plant gene expression” (The Regents of the University of California, priority 2016, dated 2021).

Test system: HAB1
Assay: Yeast two hybrid of pBD-PYR1 site saturation mutants with pACT-HAB1 on 10 μM ABA, β-galactosidase staining
Assay type: cell-based, Arabidopsis
Parameters: key: x: Mutations in PYR1 that disrupt ABA-induced binding to PYR1 to HAB1
Settings: S. cerevisiae Y190, 10 μM ABA; dead = lack of visible staining in comparison to wild type control
Procedure, shortened: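 S. cerevisiae Y190 co-expressing GAL4-DNA-binding-domain–PYR1 mutants and GAL4-activation-domain–HAB1 were spotted on SD (-Leu, -Trp) agar with 10 μM (+)-ABA for 2 days at 30° C. Colonies were chloroform-lysed and stained for β-galactosidase. Mutants lacking visible staining relative to wild type were scored as non-binding.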

| Mutations in PYR1 that disrupt ABA-induced binding to PYR1 to HAB1 | Molecule |
| --- | --- |
| x | N151V: PYR1 mutant (protein, UniProt O49686 1-191, looked up, variant N151V) Abscisic acid receptor PYR1: MPSELTPEERSELKNSIAEFHTYQLDPGSCSSLHAQRIHAPPELVWSIVRRFDKPQTYKHFIKSCSVEQNFEMRVGCTRDVIVISGLPANTSTERLDILDDERRVTGFSIIGGEHRLTNYKSVTTVHRFEKENRIWTVVLESYVVDMPEGVSEDDTRMFADTVVKLNLQKLATVAEAMARNSGDGSGSQVT |
| x | D155F: PYR1 mutant (protein, UniProt O49686 1-191, looked up, variant D155F) Abscisic acid receptor PYR1: MPSELTPEERSELKNSIAEFHTYQLDPGSCSSLHAQRIHAPPELVWSIVRRFDKPQTYKHFIKSCSVEQNFEMRVGCTRDVIVISGLPANTSTERLDILDDERRVTGFSIIGGEHRLTNYKSVTTVHRFEKENRIWTVVLESYVVDMPEGNSEDFTRMFADTVVKLNLQKLATVAEAMARNSGDGSGSQVT |
| x | N151D: PYR1 mutant (protein, UniProt O49686 1-191, looked up, variant N151D) Abscisic acid receptor PYR1: MPSELTPEERSELKNSIAEFHTYQLDPGSCSSLHAQRIHAPPELVWSIVRRFDKPQTYKHFIKSCSVEQNFEMRVGCTRDVIVISGLPANTSTERLDILDDERRVTGFSIIGGEHRLTNYKSVTTVHRFEKENRIWTVVLESYVVDMPEGDSEDDTRMFADTVVKLNLQKLATVAEAMARNSGDGSGSQVT |
| x | N151H: PYR1 mutant (protein, UniProt O49686 1-191, looked up, variant N151H) Abscisic acid receptor PYR1: MPSELTPEERSELKNSIAEFHTYQLDPGSCSSLHAQRIHAPPELVWSIVRRFDKPQTYKHFIKSCSVEQNFEMRVGCTRDVIVISGLPANTSTERLDILDDERRVTGFSIIGGEHRLTNYKSVTTVHRFEKENRIWTVVLESYVVDMPEGHSEDDTRMFADTVVKLNLQKLATVAEAMARNSGDGSGSQVT |
| x | N151Y: PYR1 mutant (protein, UniProt O49686 1-191, looked up, variant N151Y) Abscisic acid receptor PYR1: MPSELTPEERSELKNSIAEFHTYQLDPGSCSSLHAQRIHAPPELVWSIVRRFDKPQTYKHFIKSCSVEQNFEMRVGCTRDVIVISGLPANTSTERLDILDDERRVTGFSIIGGEHRLTNYKSVTTVHRFEKENRIWTVVLESYVVDMPEGYSEDDTRMFADTVVKLNLQKLATVAEAMARNSGDGSGSQVT |
| x | D155C: PYR1 mutant (protein, UniProt O49686 1-191, looked up, variant D155C) Abscisic acid receptor PYR1: MPSELTPEERSELKNSIAEFHTYQLDPGSCSSLHAQRIHAPPELVWSIVRRFDKPQTYKHFIKSCSVEQNFEMRVGCTRDVIVISGLPANTSTERLDILDDERRVTGFSIIGGEHRLTNYKSVTTVHRFEKENRIWTVVLESYVVDMPEGNSEDCTRMFADTVVKLNLQKLATVAEAMARNSGDGSGSQVT |
| x | N151C: PYR1 mutant (protein, UniProt O49686 1-191, looked up, variant N151C) Abscisic acid receptor PYR1: MPSELTPEERSELKNSIAEFHTYQLDPGSCSSLHAQRIHAPPELVWSIVRRFDKPQTYKHFIKSCSVEQNFEMRVGCTRDVIVISGLPANTSTERLDILDDERRVTGFSIIGGEHRLTNYKSVTTVHRFEKENRIWTVVLESYVVDMPEGCSEDDTRMFADTVVKLNLQKLATVAEAMARNSGDGSGSQVT |
| x | D155Y: PYR1 mutant (protein, UniProt O49686 1-191, looked up, variant D155Y) Abscisic acid receptor PYR1: MPSELTPEERSELKNSIAEFHTYQLDPGSCSSLHAQRIHAPPELVWSIVRRFDKPQTYKHFIKSCSVEQNFEMRVGCTRDVIVISGLPANTSTERLDILDDERRVTGFSIIGGEHRLTNYKSVTTVHRFEKENRIWTVVLESYVVDMPEGNSEDYTRMFADTVVKLNLQKLATVAEAMARNSGDGSGSQVT |
| x | N151W: PYR1 mutant (protein, UniProt O49686 1-191, looked up, variant N151W) Abscisic acid receptor PYR1: MPSELTPEERSELKNSIAEFHTYQLDPGSCSSLHAQRIHAPPELVWSIVRRFDKPQTYKHFIKSCSVEQNFEMRVGCTRDVIVISGLPANTSTERLDILDDERRVTGFSIIGGEHRLTNYKSVTTVHRFEKENRIWTVVLESYVVDMPEGWSEDDTRMFADTVVKLNLQKLATVAEAMARNSGDGSGSQVT |
| x | D155M: PYR1 mutant (protein, UniProt O49686 1-191, looked up, variant D155M) Abscisic acid receptor PYR1: MPSELTPEERSELKNSIAEFHTYQLDPGSCSSLHAQRIHAPPELVWSIVRRFDKPQTYKHFIKSCSVEQNFEMRVGCTRDVIVISGLPANTSTERLDILDDERRVTGFSIIGGEHRLTNYKSVTTVHRFEKENRIWTVVLESYVVDMPEGNSEDMTRMFADTVVKLNLQKLATVAEAMARNSGDGSGSQVT |
| x | D155R: PYR1 mutant (protein, UniProt O49686 1-191, looked up, variant D155R) Abscisic acid receptor PYR1: MPSELTPEERSELKNSIAEFHTYQLDPGSCSSLHAQRIHAPPELVWSIVRRFDKPQTYKHFIKSCSVEQNFEMRVGCTRDVIVISGLPANTSTERLDILDDERRVTGFSIIGGEHRLTNYKSVTTVHRFEKENRIWTVVLESYVVDMPEGNSEDRTRMFADTVVKLNLQKLATVAEAMARNSGDGSGSQVT |
| x | D155W: PYR1 mutant (protein, UniProt O49686 1-191, looked up, variant D155W) Abscisic acid receptor PYR1: MPSELTPEERSELKNSIAEFHTYQLDPGSCSSLHAQRIHAPPELVWSIVRRFDKPQTYKHFIKSCSVEQNFEMRVGCTRDVIVISGLPANTSTERLDILDDERRVTGFSIIGGEHRLTNYKSVTTVHRFEKENRIWTVVLESYVVDMPEGNSEDWTRMFADTVVKLNLQKLATVAEAMARNSGDGSGSQVT |
| x | D155G: PYR1 mutant (protein, UniProt O49686 1-191, looked up, variant D155G) Abscisic acid receptor PYR1: MPSELTPEERSELKNSIAEFHTYQLDPGSCSSLHAQRIHAPPELVWSIVRRFDKPQTYKHFIKSCSVEQNFEMRVGCTRDVIVISGLPANTSTERLDILDDERRVTGFSIIGGEHRLTNYKSVTTVHRFEKENRIWTVVLESYVVDMPEGNSEDGTRMFADTVVKLNLQKLATVAEAMARNSGDGSGSQVT |
| x | N151F: PYR1 mutant (protein, UniProt O49686 1-191, looked up, variant N151F) Abscisic acid receptor PYR1: MPSELTPEERSELKNSIAEFHTYQLDPGSCSSLHAQRIHAPPELVWSIVRRFDKPQTYKHFIKSCSVEQNFEMRVGCTRDVIVISGLPANTSTERLDILDDERRVTGFSIIGGEHRLTNYKSVTTVHRFEKENRIWTVVLESYVVDMPEGFSEDDTRMFADTVVKLNLQKLATVAEAMARNSGDGSGSQVT |
| x | D155P: PYR1 mutant (protein, UniProt O49686 1-191, looked up, variant D155P) Abscisic acid receptor PYR1: MPSELTPEERSELKNSIAEFHTYQLDPGSCSSLHAQRIHAPPELVWSIVRRFDKPQTYKHFIKSCSVEQNFEMRVGCTRDVIVISGLPANTSTERLDILDDERRVTGFSIIGGEHRLTNYKSVTTVHRFEKENRIWTVVLESYVVDMPEGNSEDPTRMFADTVVKLNLQKLATVAEAMARNSGDGSGSQVT |
| x | N151E: PYR1 mutant (protein, UniProt O49686 1-191, looked up, variant N151E) Abscisic acid receptor PYR1: MPSELTPEERSELKNSIAEFHTYQLDPGSCSSLHAQRIHAPPELVWSIVRRFDKPQTYKHFIKSCSVEQNFEMRVGCTRDVIVISGLPANTSTERLDILDDERRVTGFSIIGGEHRLTNYKSVTTVHRFEKENRIWTVVLESYVVDMPEGESEDDTRMFADTVVKLNLQKLATVAEAMARNSGDGSGSQVT |
| x | D155V: PYR1 mutant (protein, UniProt O49686 1-191, looked up, variant D155V) Abscisic acid receptor PYR1: MPSELTPEERSELKNSIAEFHTYQLDPGSCSSLHAQRIHAPPELVWSIVRRFDKPQTYKHFIKSCSVEQNFEMRVGCTRDVIVISGLPANTSTERLDILDDERRVTGFSIIGGEHRLTNYKSVTTVHRFEKENRIWTVVLESYVVDMPEGNSEDVTRMFADTVVKLNLQKLATVAEAMARNSGDGSGSQVT |
| x | N151K: PYR1 mutant (protein, UniProt O49686 1-191, looked up, variant N151K) Abscisic acid receptor PYR1: MPSELTPEERSELKNSIAEFHTYQLDPGSCSSLHAQRIHAPPELVWSIVRRFDKPQTYKHFIKSCSVEQNFEMRVGCTRDVIVISGLPANTSTERLDILDDERRVTGFSIIGGEHRLTNYKSVTTVHRFEKENRIWTVVLESYVVDMPEGKSEDDTRMFADTVVKLNLQKLATVAEAMARNSGDGSGSQVT |
| x | N151G: PYR1 mutant (protein, UniProt O49686 1-191, looked up, variant N151G) Abscisic acid receptor PYR1: MPSELTPEERSELKNSIAEFHTYQLDPGSCSSLHAQRIHAPPELVWSIVRRFDKPQTYKHFIKSCSVEQNFEMRVGCTRDVIVISGLPANTSTERLDILDDERRVTGFSIIGGEHRLTNYKSVTTVHRFEKENRIWTVVLESYVVDMPEGGSEDDTRMFADTVVKLNLQKLATVAEAMARNSGDGSGSQVT |
| x | D155L: PYR1 mutant (protein, UniProt O49686 1-191, looked up, variant D155L) Abscisic acid receptor PYR1: MPSELTPEERSELKNSIAEFHTYQLDPGSCSSLHAQRIHAPPELVWSIVRRFDKPQTYKHFIKSCSVEQNFEMRVGCTRDVIVISGLPANTSTERLDILDDERRVTGFSIIGGEHRLTNYKSVTTVHRFEKENRIWTVVLESYVVDMPEGNSEDLTRMFADTVVKLNLQKLATVAEAMARNSGDGSGSQVT |
| x | N151I: PYR1 mutant (protein, UniProt O49686 1-191, looked up, variant N151I) Abscisic acid receptor PYR1: MPSELTPEERSELKNSIAEFHTYQLDPGSCSSLHAQRIHAPPELVWSIVRRFDKPQTYKHFIKSCSVEQNFEMRVGCTRDVIVISGLPANTSTERLDILDDERRVTGFSIIGGEHRLTNYKSVTTVHRFEKENRIWTVVLESYVVDMPEGISEDDTRMFADTVVKLNLQKLATVAEAMARNSGDGSGSQVT |
